The assay concerns the target Calmodulin (human full-length CaM, Ca2+-loaded) (human, UniProt P0DP23 1-149). Nature of the assay: cross-linking.

B1: p85α cSH2 domain V663K/V667N/L687F/L691V/L696N (residues 614-724) (domain or fragment)
chain: EDLPHHDEKTWNVGSSNRNKAENLLRGKRDGTFLVRESSKQGCYACSVVKDGENKHCVINKTATGYGFAEPYNFYSSVKELVNHYQHTSLVQHNDSLNVTLAYPVYAQQRR
Take B1: the binding result was “binds”.
